{"source": "patent US20250230234A1", "key": {"[1]": {"molecular_target": "human GPRC5D-human GPRC5A chimera (145-167) (human) (UniProt Q9NZD1)", "sequence (Q9NZD1 other isoform, or with tags, fused parts or gaps mutant)": "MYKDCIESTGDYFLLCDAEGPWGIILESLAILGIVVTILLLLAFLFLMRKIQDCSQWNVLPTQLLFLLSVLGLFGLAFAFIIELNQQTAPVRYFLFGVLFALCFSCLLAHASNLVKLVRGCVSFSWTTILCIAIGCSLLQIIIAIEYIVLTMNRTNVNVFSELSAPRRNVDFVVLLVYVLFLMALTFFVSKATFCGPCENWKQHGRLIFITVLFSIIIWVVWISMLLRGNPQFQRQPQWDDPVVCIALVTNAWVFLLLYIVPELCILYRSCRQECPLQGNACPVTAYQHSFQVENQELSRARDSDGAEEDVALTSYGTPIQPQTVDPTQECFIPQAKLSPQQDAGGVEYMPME", "assay": "flow cytometry on FreeStyle 293-F cells expressing the chimera (aa145-aa167); negative control"}, "[2]": {"molecular_target": "human GPRC5D-human GPRC5A chimera (85-93) (human) (UniProt Q9NZD1)", "sequence (Q9NZD1 other isoform, or with tags, fused parts or gaps mutant)": "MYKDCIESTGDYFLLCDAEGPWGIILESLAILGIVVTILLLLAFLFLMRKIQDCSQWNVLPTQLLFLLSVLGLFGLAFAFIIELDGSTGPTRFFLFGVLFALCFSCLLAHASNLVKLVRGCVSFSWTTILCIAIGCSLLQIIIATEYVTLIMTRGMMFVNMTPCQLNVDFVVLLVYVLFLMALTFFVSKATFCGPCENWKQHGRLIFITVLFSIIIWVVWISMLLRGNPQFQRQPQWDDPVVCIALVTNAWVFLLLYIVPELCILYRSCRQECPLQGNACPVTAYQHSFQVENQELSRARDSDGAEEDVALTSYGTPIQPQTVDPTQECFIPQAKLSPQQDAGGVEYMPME", "assay": "flow cytometry on FreeStyle 293-F cells expressing the chimera (aa85-aa93); negative control"}, "[3]": {"molecular_target": "human GPRC5D-human GPRC5A chimera (226-239) (human) (UniProt Q9NZD1)", "sequence (Q9NZD1 other isoform, or with tags, fused parts or gaps mutant)": "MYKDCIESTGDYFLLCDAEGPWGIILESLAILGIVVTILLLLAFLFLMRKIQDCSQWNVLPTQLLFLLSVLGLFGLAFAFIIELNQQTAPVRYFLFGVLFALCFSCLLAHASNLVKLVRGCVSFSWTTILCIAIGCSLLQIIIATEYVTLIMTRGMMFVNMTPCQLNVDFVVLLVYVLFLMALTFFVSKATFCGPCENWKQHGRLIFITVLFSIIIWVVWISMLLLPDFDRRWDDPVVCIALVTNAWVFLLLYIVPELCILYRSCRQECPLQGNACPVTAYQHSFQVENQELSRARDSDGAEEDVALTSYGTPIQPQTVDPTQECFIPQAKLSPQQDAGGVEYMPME", "assay": "flow cytometry on FreeStyle 293-F cells expressing the chimera (aa226-aa239); negative control"}, "[4]": {"molecular_target": "human GPRC5D (full length, on cells) (human) (UniProt Q9NZD1)", "sequence (Q9NZD1 whole entry)": "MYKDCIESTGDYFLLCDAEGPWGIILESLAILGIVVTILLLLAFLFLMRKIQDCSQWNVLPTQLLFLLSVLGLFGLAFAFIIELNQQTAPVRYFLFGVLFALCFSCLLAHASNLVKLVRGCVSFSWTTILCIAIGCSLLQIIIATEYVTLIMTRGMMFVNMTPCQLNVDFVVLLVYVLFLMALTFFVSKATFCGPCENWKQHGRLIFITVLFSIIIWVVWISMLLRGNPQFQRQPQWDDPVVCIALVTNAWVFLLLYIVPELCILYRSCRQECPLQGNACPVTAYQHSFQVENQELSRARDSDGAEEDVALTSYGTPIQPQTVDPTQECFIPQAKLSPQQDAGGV", "assay": "flow cytometry on FreeStyle 293-F cells expressing hGPRC5D; negative control"}, "[5]": {"molecular_target": "human GPRC5D-human GPRC5A chimera (Nterm) (human) (UniProt Q9NZD1)", "sequence (Q9NZD1 other isoform, or with tags, fused parts or gaps mutant)": "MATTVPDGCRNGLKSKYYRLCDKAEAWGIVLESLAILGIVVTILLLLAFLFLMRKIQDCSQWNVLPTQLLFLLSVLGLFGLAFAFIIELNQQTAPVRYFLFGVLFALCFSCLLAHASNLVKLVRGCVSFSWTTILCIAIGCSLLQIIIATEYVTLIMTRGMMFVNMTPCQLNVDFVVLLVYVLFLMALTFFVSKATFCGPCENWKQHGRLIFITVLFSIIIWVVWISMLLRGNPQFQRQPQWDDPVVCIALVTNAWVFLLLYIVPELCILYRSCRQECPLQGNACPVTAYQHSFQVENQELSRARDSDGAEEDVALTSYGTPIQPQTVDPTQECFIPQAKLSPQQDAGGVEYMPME", "assay": "flow cytometry on FreeStyle 293-F cells expressing the chimera (Nter); negative control"}}, "data": [{"substance": "Isotype control IgG1 in wildtype format (antibody to an irrelevant small molecule target)", "values": [{"measurement": "MFI", "setting": "[1]", "result": 32500}, {"measurement": "MFI", "setting": "[2]", "result": 29700}, {"measurement": "MFI", "setting": "[3]", "result": 29800}, {"measurement": "MFI", "setting": "[4]", "result": 27400}, {"measurement": "MFI", "setting": "[5]", "result": 24700}]}]}
